The chains are these.
B1: TPR t1 (parent)
chain: GACCAAUCUGCCCUCAGAGCUCGAGAACAUCUUCGGAUGCAGAGGAGGCAGGCUUCGGUGGCGCGAUAGCGCCAACGUCCUCAACCUCCAAUGCAUCCCACCACAUGAUGAUGCCUGAAGAGCCUUGGUUUUUUG

The variants in this series derive from B1. Briefly: polymerase ribozyme fitness, log enrichment relative to wild type (log ratio); higher = more active; in vitro selection for triplet polymerase activity. In outline: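 Each subunit of a heterodimeric triplet polymerase ribozyme was mutagenized into a library by PCR, transcribed, and subjected to one round of in vitro selection, run in triplicate. Libraries were annealed with a biotinylated primer, the partner subunit and triplets, incubated frozen at −7 °C, and extended constructs were gel-excised, captured on streptavidin beads and recovered by RT-PCR. Input and output libraries were sequenced on Illumina, keeping genotypes with ≥10 input reads and ≥1 read per output. Fitness is log base 2 of genotype enrichment divided by wild-type enrichment, from inverse-variance-weighted replicate averages.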
Take C8U U9C C12U G71U U132A: the “polymerase ribozyme fitness (log ratio)” value came to 0.729.

In the case of C8U C70A C73A C97U, the “polymerase ribozyme fitness (log ratio)” value was -3.27.

For the variant C8U G71C U87A, the “polymerase ribozyme fitness (log ratio)” value was -2.97.

As to C8U C70U C79G C94G, the “polymerase ribozyme fitness (log ratio)” value was -3.8.

As for C8U A83U C85U C123G C124G, the “polymerase ribozyme fitness (log ratio)” value came to 2.01.

Consider C8U A121G, for which the “polymerase ribozyme fitness (log ratio)” value is 1.42.

As to C8U C34A G44U G61U U130G, the “polymerase ribozyme fitness (log ratio)” value is -4.49.

As for C8U U78C U109A, the “polymerase ribozyme fitness (log ratio)” value was -5.42.

For C8U A37U C56U A83C C97U C124A, the “polymerase ribozyme fitness (log ratio)” value was -1.47.

As to C8G U14C U32C G48A G52U A95U G110A, the “polymerase ribozyme fitness (log ratio)” value is -4.18.

Regarding C8U C11U G93U, the “polymerase ribozyme fitness (log ratio)” value was -1.31.

Turning to U9A C11U C76U A84C, the “polymerase ribozyme fitness (log ratio)” value is -0.377.

Take C8U C13G G69A C72A: the “polymerase ribozyme fitness (log ratio)” value is -4.71.

As to C8G G69C U96A, the “polymerase ribozyme fitness (log ratio)” value was -2.59.

Turning to C8U C101A, the “polymerase ribozyme fitness (log ratio)” value is -0.038.

Regarding C8U C101U, the “polymerase ribozyme fitness (log ratio)” value is 0.244.

For the variant C8U A16U A66U C72G G77U C123U, the “polymerase ribozyme fitness (log ratio)” value is -1.74.

For C8U C72U U78C U81A A83G, the “polymerase ribozyme fitness (log ratio)” value is -0.492.

For the variant C8U C22G G39C, the “polymerase ribozyme fitness (log ratio)” value was -4.04.

Turning to C8U A16U G36C G52U C97A, the “polymerase ribozyme fitness (log ratio)” value is -2.9.

Consider C8U C28G C70A U131A, for which the “polymerase ribozyme fitness (log ratio)” value is -4.27.

On to C8G U21A C76G C99A U112A, for which the “polymerase ribozyme fitness (log ratio)” value is -5.05.

U9A A27C G117C: the “polymerase ribozyme fitness (log ratio)” value was -5.71.

For the variant C8U C88G, the “polymerase ribozyme fitness (log ratio)” value was -0.442.

As to C8U C34A G35U G63U C82U G120A U130A, the “polymerase ribozyme fitness (log ratio)” value is -4.37.

Consider C8G U32A, for which the “polymerase ribozyme fitness (log ratio)” value is -3.34.

Consider C8G G65U, for which the “polymerase ribozyme fitness (log ratio)” value is -5.38.

Regarding C8U G47C G52A G113A, the “polymerase ribozyme fitness (log ratio)” value is -3.3.

On to C8U G93A C94U A118U, for which the “polymerase ribozyme fitness (log ratio)” value was -0.514.

Turning to C8U C40U G47A, the “polymerase ribozyme fitness (log ratio)” value was -1.72.

As for C8U C70G A111U, the “polymerase ribozyme fitness (log ratio)” value was -6.19.

On to C8U G61C, for which the “polymerase ribozyme fitness (log ratio)” value is -1.18.

In the case of C8G G93A, the “polymerase ribozyme fitness (log ratio)” value is -0.604.

On to C8U C53A, for which the “polymerase ribozyme fitness (log ratio)” value was 0.141.

Take U9A C12A C124U: the “polymerase ribozyme fitness (log ratio)” value is 2.01.

Turning to C8G U14A G107U, the “polymerase ribozyme fitness (log ratio)” value was -4.05.

Turning to C8U G39U C49G G63C U78A G128A, the “polymerase ribozyme fitness (log ratio)” value was -4.09.

For U9A A46U U59C U78A C89G U109A, the “polymerase ribozyme fitness (log ratio)” value is -7.76.

For C8G U87A U96G G110U G122C U129C, the “polymerase ribozyme fitness (log ratio)” value was -3.4.

On to C8U G36C G45U C64U C101A, for which the “polymerase ribozyme fitness (log ratio)” value is -1.02.

For the variant C8G U21A G57C A108G U133C, the “polymerase ribozyme fitness (log ratio)” value is -5.29.

Regarding U9A C11U C40A U134G, the “polymerase ribozyme fitness (log ratio)” value was -0.696.

On to C8G U81A, for which the “polymerase ribozyme fitness (log ratio)” value was determined as 0.387.

In the case of C8G U81C, the “polymerase ribozyme fitness (log ratio)” value amounted to 0.586.

Consider C8G U55G C88A A121U G128U, for which the “polymerase ribozyme fitness (log ratio)” value came to 0.0321.

Consider C8U G10C C13A C49G C53A C101A U133A, for which the “polymerase ribozyme fitness (log ratio)” value is -3.

Turning to C8U A26G U54C C72U, the “polymerase ribozyme fitness (log ratio)” value was -2.88.

For C8U C40G G61A G120A, the “polymerase ribozyme fitness (log ratio)” value was determined as 1.65.

C8U A27G G42U C56A A74C C89U A111C: the “polymerase ribozyme fitness (log ratio)” value was -5.47.

Consider C8U C13U G19A C40U C53U U54G A74G U131A, for which the “polymerase ribozyme fitness (log ratio)” value is -5.02.

In the case of C8U A91U U130A, the “polymerase ribozyme fitness (log ratio)” value was -1.26.

Turning to C8U C15A A118U A121C, the “polymerase ribozyme fitness (log ratio)” value worked out at 0.853.

For C8U G45C G71A C85A, the “polymerase ribozyme fitness (log ratio)” value was -3.29.

In the case of C8U G36U G60C, the “polymerase ribozyme fitness (log ratio)” value was -1.66.

In the case of C8U C56G, the “polymerase ribozyme fitness (log ratio)” value is -0.121.

Regarding C8U A29U C72A, the “polymerase ribozyme fitness (log ratio)” value is -1.79.

As for C8G G61A U78C U92A, the “polymerase ribozyme fitness (log ratio)” value is -3.12.

In the case of C8U C56U C70U C73A, the “polymerase ribozyme fitness (log ratio)” value is -2.03.

In the case of C8U G36U G58C A91C U96C A111U A121U, the “polymerase ribozyme fitness (log ratio)” value is -5.93.

Turning to C8U C124G, the “polymerase ribozyme fitness (log ratio)” value came out at 2.32.

For C8U A111G, the “polymerase ribozyme fitness (log ratio)” value turned out to be 1.25.

Turning to C8G U54G C115A, the “polymerase ribozyme fitness (log ratio)” value amounted to 2.13.

Consider C8U G58C U59A G60A, for which the “polymerase ribozyme fitness (log ratio)” value is -0.843.

As to C8U G61A A95U G120A, the “polymerase ribozyme fitness (log ratio)” value is 1.6.

In the case of C8U G39C U96C C101U U116A, the “polymerase ribozyme fitness (log ratio)” value is -3.66.

As to C8U G93A, the “polymerase ribozyme fitness (log ratio)” value was 0.108.

Regarding C8U A26G U54C G60U, the “polymerase ribozyme fitness (log ratio)” value is -2.1.

As for C8U C11U, the “polymerase ribozyme fitness (log ratio)” value was -0.675.

Consider C8U G42U G48U C79A G122A U132A, for which the “polymerase ribozyme fitness (log ratio)” value was -4.72.

On to C8U C40U A43U G77C, for which the “polymerase ribozyme fitness (log ratio)” value was -1.32.

As for C8U C53U U92G U131G, the “polymerase ribozyme fitness (log ratio)” value was -2.8.

Regarding C8U A27U C34U G48U G60A C98U U112C G117U, the “polymerase ribozyme fitness (log ratio)” value was -7.25.

C8G G61C C89U C104U: the “polymerase ribozyme fitness (log ratio)” value is -2.02.

With C8G U55G G61C, the “polymerase ribozyme fitness (log ratio)” value is -0.439.

C8G U21C G45U C49G: the “polymerase ribozyme fitness (log ratio)” value is -0.918.

C8G U54G C89G: the “polymerase ribozyme fitness (log ratio)” value was -1.05.

Consider C8U G39A C94G C99U, for which the “polymerase ribozyme fitness (log ratio)” value is -4.71.

As to C8U U96A, the “polymerase ribozyme fitness (log ratio)” value is -0.0448.

In the case of C8U C15U C53A, the “polymerase ribozyme fitness (log ratio)” value was -0.442.

Regarding C8U C98U, the “polymerase ribozyme fitness (log ratio)” value is -1.28.

With C8U C22G G57C C89A A95G A111U A121U, the “polymerase ribozyme fitness (log ratio)” value is -3.38.

Turning to C8G G77C, the “polymerase ribozyme fitness (log ratio)” value stood at 0.232.

With C8U C20G, the “polymerase ribozyme fitness (log ratio)” value is -3.53.

As for C8U C20A, the “polymerase ribozyme fitness (log ratio)” value is -1.98.

Values taken from the RNAGym collection of RNA variant scans (doi:10.1073/pnas.2313332121).
